Reference: US20040081647A1 (published 2004)

Biological target: T1, human TNFα fusion protein with an N-terminal S-Tag (human, UniProt P01375 77-233)
T1 construct: Constructed, expressed and purified by the applicants; also called S-TNF; not shown: 15 amino acid S-Tag peptide (Novagen)
Experiment: indirect ELISA: sp55 from conditioned media captured on Ni-NTA wells, S-TNF at 1 µg/mL, S-protein-HRP, absorbance at 370 nm

T1 sequence (P01375 77-233): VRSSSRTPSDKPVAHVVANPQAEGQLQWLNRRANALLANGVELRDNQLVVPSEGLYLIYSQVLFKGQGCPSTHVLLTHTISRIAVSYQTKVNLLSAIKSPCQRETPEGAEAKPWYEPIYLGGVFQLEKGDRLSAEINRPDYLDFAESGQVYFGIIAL

B1: sp55 address domain (human TNFR-1 ecto-domain residues 30-211) with C-terminal myc and His6 tags (receptor)
chain: DAAQPARRAVRSLVPHLGDREKRDSVCPQGKYIHPQNNSICCTKCHKGTYLYNDCPGPGQDTDCRECESGSFTASENHLRHCLSCSKCRKEMGQVEISSCTVDRDTVCGCRKNQYRHYWSENLFQCFNCSLCLNGTVHLSCQEKQNTVCTCHAGFFLRENECVSCSNCKKSLECTKLCLPQIENVKGTEDSGTTRGGPEQKLISEEDLNSAVDHHHHHH
notes: also called p55FL-myc-his; p55FL
- fold elevation of S-TNF binding over non-specific binding in control samples: 3 fold
